Measurements: the supplement of paper PMC6755084

What follows are sequences tested on F1*sub RNA substrate (template-directed ligation) (assay: fraction ligated after 30 min (ligated reads / total reads); higher = more ligase activity; sequences stand for … in GAGACCGCAACTGAAAAGTTGT…AGTTCTGCACGTAGAAGCAAAAGGC). Conditions: 42 °C.
In short: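 Oligo-pool templates underwent PCR amplification, T7 transcription and gel purification to yield ribozyme variants. Gel-separated ligated and unligated bands were converted to complementary DNA with barcoded primers and sequenced on a MiSeq, keeping core bases of quality ≥20. The ratio of ligated reads to total reads gave the fraction ligated for every variant.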
“TATCACTTGTGTAGACCTTTGGATGGGTTGA [3d1735]” was tested, and the fraction ligated was 0.845.
“TATCACTTGTGTAGCACTTTGGATGGGTTGA [3d1733]” gave a fraction ligated of 0.841.
Sequence “TATCACTTGTGTGACACTTTGGATGGGTTGA [3d1731]” has a fraction ligated of 0.826.
For “TATCACTTGTTAAACACTTTGGATGGGTTGA [3d1706]”, the fraction ligated was 0.842.
With “TATCACTTGTTAAGAACTTTGGATGGGTTGA [3d1708]” the fraction ligated was 0.874.
“TATCACTTGTTAAGACACTTGGATGGGTTGA [3d1711]” showed a fraction ligated of 0.784.
“TATCACTTGTTAAGACACTTTGATGGGTTGA [3d1712]” showed a fraction ligated of 0.786.
Work on “TATCACTTGTTAAGACACTTTGGAGGGTTGA [3d1714]” yielded a fraction ligated of 0.111.
With “TATCACTTGTTAAGACACTTTGGATGGGTTA [3d1716]” the fraction ligated was 0.778.
“TATCACTTGTTAAGACACTTTGGATGGGTTG [3d1717]” was tested, and the fraction ligated was 0.83.
“TATCACTTGTTAAGACACTTTGGATGGGTTGA [2d179]” gave a fraction ligated of 0.859.
“TATCACTTGTTAAGACACTTTGGATGGTTGA [3d1715]” was tested, and the fraction ligated was 0.348.
“TATCACTTGTTAAGACACTTTGGTGGGTTGA [3d1713]” showed a fraction ligated of 0.111.
In the case of “TATCACTTGTTAAGACATTTGGATGGGTTGA [3d1710]”, the fraction ligated is reported as 0.835.
“TATCACTTGTTAAGACCTTTGGATGGGTTGA [3d1709]” was tested, and the fraction ligated was 0.785.
Work on “TATCACTTGTTAAGCACTTTGGATGGGTTGA [3d1707]” yielded a fraction ligated of 0.797.
“TATCACTTGTTAGACACTTTGGATGGGTTGA [3d1705]” showed a fraction ligated of 0.842.
In the case of “TATCACTTTCAAGACACTTTGGATGGGTTGA [3d1479]”, the fraction ligated is reported as 0.772.
In the case of “TATCACTTTCGAAACACTTTGGATGGGTTGA [3d1494]”, the fraction ligated is reported as 0.795.
Sequence “TATCACTTTCGAAGAACTTTGGATGGGTTGA [3d1496]” has a fraction ligated of 0.843.
“TATCACTTTCGAAGACACTTGGATGGGTTGA [3d1499]” was tested, and the fraction ligated was 0.779.
For “TATCACTTTCGAAGACACTTTGATGGGTTGA [3d1500]”, the fraction ligated was 0.767.
“TATCACTTTCGAAGACACTTTGGAGGGTTGA [3d1502]” was tested, and the fraction ligated was 0.0243.
“TATCACTTTCGAAGACACTTTGGATGGGTTA [3d1504]” gave a fraction ligated of 0.382.
“TATCACTTTCGAAGACACTTTGGATGGGTTG [3d1505]” was tested, and the fraction ligated was 0.792.
“TATCACTTTCGAAGACACTTTGGATGGGTTGA [2d149]” was tested, and the fraction ligated was 0.797.
“TATCACTTTCGAAGACACTTTGGATGGTTGA [3d1503]” gave a fraction ligated of 0.0707.
“TATCACTTTCGAAGACACTTTGGTGGGTTGA [3d1501]” gave a fraction ligated of 0.0423.
Sequence “TATCACTTTCGAAGACATTTGGATGGGTTGA [3d1498]” has a fraction ligated of 0.769.
Sequence “TATCACTTTCGAAGACCTTTGGATGGGTTGA [3d1497]” has a fraction ligated of 0.765.
With “TATCACTTTCGAAGCACTTTGGATGGGTTGA [3d1495]” the fraction ligated was 0.766.
“TATCACTTTCGAGACACTTTGGATGGGTTGA [3d1493]” showed a fraction ligated of 0.79.
For “TATCACTTTCGTAAAACTTTGGATGGGTTGA [3d1519]”, the fraction ligated was 0.823.
“TATCACTTTCGTAAACACTTGGATGGGTTGA [3d1522]” gave a fraction ligated of 0.778.
Sequence “TATCACTTTCGTAAACACTTTGATGGGTTGA [3d1523]” has a fraction ligated of 0.768.
With “TATCACTTTCGTAAACACTTTGGAGGGTTGA [3d1525]” the fraction ligated was 0.0183.
Work on “TATCACTTTCGTAAACACTTTGGATGGGTTA [3d1527]” yielded a fraction ligated of 0.575.
In the case of “TATCACTTTCGTAAACACTTTGGATGGGTTG [3d1528]”, the fraction ligated is reported as 0.776.
“TATCACTTTCGTAAACACTTTGGATGGTTGA [3d1526]” was tested, and the fraction ligated was 0.0497.
Sequence “TATCACTTTCGTAAACACTTTGGTGGGTTGA [3d1524]” has a fraction ligated of 0.0319.
“TATCACTTTCGTAAACATTTGGATGGGTTGA [3d1521]” gave a fraction ligated of 0.787.
“TATCACTTTCGTAAACCTTTGGATGGGTTGA [3d1520]” gave a fraction ligated of 0.788.
“TATCACTTTCGTAACACTTTGGATGGGTTGA [3d1507]” showed a fraction ligated of 0.796.
Work on “TATCACTTTCGTAAGAACTTGGATGGGTTGA [3d1540]” yielded a fraction ligated of 0.829.
Work on “TATCACTTTCGTAAGAACTTTGATGGGTTGA [3d1541]” yielded a fraction ligated of 0.829.
Work on “TATCACTTTCGTAAGAACTTTGGAGGGTTGA [3d1543]” yielded a fraction ligated of 0.126.
In the case of “TATCACTTTCGTAAGAACTTTGGATGGGTTA [3d1545]”, the fraction ligated is reported as 0.851.
“TATCACTTTCGTAAGAACTTTGGATGGGTTG [3d1546]” showed a fraction ligated of 0.868.
For “TATCACTTTCGTAAGAACTTTGGATGGTTGA [3d1544]”, the fraction ligated was 0.643.
Sequence “TATCACTTTCGTAAGAACTTTGGTGGGTTGA [3d1542]” has a fraction ligated of 0.342.
“TATCACTTTCGTAAGAATTTGGATGGGTTGA [3d1539]” was tested, and the fraction ligated was 0.835.
With “TATCACTTTCGTAAGACACTGGATGGGTTGA [3d1561]” the fraction ligated was 0.774.
“TATCACTTTCGTAAGACACTTGATGGGTTGA [3d1562]” was tested, and the fraction ligated was 0.787.
With “TATCACTTTCGTAAGACACTTGGAGGGTTGA [3d1564]” the fraction ligated was 0.085.
With “TATCACTTTCGTAAGACACTTGGATGGGTTA [3d1566]” the fraction ligated was 0.477.
